According to patent US20240101668A1 (WUGEN, published 2024):
Numbering of substitutions follows the chain as printed.

B1: Polypeptide No. 269 (scFv, V domains shown)
VH: QVQLVQSGAEVKKPGASVKVSCKASGGSFSSYALHWVRQAPGQGLEWMGLINPSGGRTSYAQKFQGRVTMTRDTSTSTVYMELSSLRSEDTAVYYCARDEGYATFDYWGQGTLVTVSS
VL: EIVMTQSPATLSVSPGERATLSCRASQSISSSYLAWYQQKPGQAPRLLIYDVSARATGIPARFSGSGSGTEFTLTISSLQSEDFAVYYCQQYYSTPLTFGPGTKVDIKR
notes: scFv
B2: Polypeptide No. 294 (scFv, V domains shown)
VH: QVQLVQSGAEVKKPGASVKVSCKASGYTFTSNNMHWVRQAPGQGLEWMGWINLNSGGTNYAQKFQGRVTMTRDTSTSTVYMELSSLRSEDTAVYYCAKAIDYYYMDVWGKGTTVTVSS
VL: DIQMTQSPSSLSASVGDRVTITCRASQGIRNDLGWYQQKPGKAPKLLIYQASSLENGVPSRFSGSGSGTDFTLTISSLQPEDFATYYCQQAYSLPWTFGQGTKLEIKR
notes: scFv
B3: Polypeptide No. 280 (scFv, V domains shown)
VH: QVQLVQSGAEVKKPGASVKVSCKASGYTFTRYYMHWVRQAPGQGLEWMGIINPSGGSTSYAQKFQGRVTMTRDTSTSTVYMELSSLRSEDTAVYYCARGETRSYAPYGMDVWGQGTTVTVSS
VL: DIQMTQSPSSLSASVGDRVTITCQASQDISNYLNWYQQKPGKAPKLLIYQASNKDTGVPSRFSGSGSGTDFTLTISSLQPEDFATYYCQQSYSTPPTFGQGTKLEIKR
notes: scFv
B4: Polypeptide No. 270 (scFv, V domains shown)
VH: QVQLVQSGAEVKKPGASVKVSCKASGGTFSSYYMHWVRQAPGQGLEWMGWISAYNGNTNYAQKLQGRVTMTRDTSTSTVYMELSSLRSEDTAVYYCAKDMGYYYDSSGGFDYWGQGTLVTVSS
VL: B3 VL with Q24R, D28S, N31S, Q50D, K54L, D55E, S91T, S93T, P96L, L104V
notes: scFv
B5: Polypeptide No. 284 (scFv, V domains shown)
VH: B3 VH with R31S, I50V, S59T, G99V, E100P, T101G, R102V, Y104P, A105G, P106D
VL: DIQMTQSPSSLSASVGDRVTITCRASHNISTWLAWYQQKPGKAPKLLIYAASSLQSGVPSRFSGSGSGTDFTLTISSLQPEDFATYYCQQSYSTPPTFGQGTRLEIKR
notes: scFv
B6: Polypeptide No. 287 (scFv, V domains shown)
VH: QVQLVQSGAEVKKPGASVKVSCKASGYTFTRHYVHWVRQAPGQGLEWVGIINPSSGSASYAQKFQGRVTMTRDTSTSTVYMELSSLRSEDTAVYYCARDRLRSRFDYWGQGTLVTVSS
VL: B5 VL with H27Q, N28S, T31S, W32S, S93T, T94I, R103K
notes: scFv
B7: Polypeptide No. 290 (scFv, V domains shown)
VH: B4 VH with S30T, N57K, N59D, L64F, K98R, M100Q, G109A, Y112I
VL: B3 VL with Q24R, D28S, N31S, Q50D, K54L, D55E, S91T, T94A
notes: scFv
B8: Polypeptide No. 293 (scFv, V domains shown)
VH: QVQLVQSGAEVKKPGSSVKVSCKASGYMFTTPYIHWVRQAPGQGLEWMGVINPISGTTTYAQKFQGRVTITADESTSTAYMELSSLRSEDTAVYYCANDRHYDFWSGYYKEEWEYFQHWGQGTLVTVSS
VL: not shown
notes: scFv
B9: Polypeptide No. 278 (scFv, V domains shown)
VH: QVQLVQSGAEVKKPGASVKVSCKASGYTFTSYYMHWVRQAPGQGLEWMGIINPSSGSTTYAQKFQGRVTMTRDTSTSTVYMELSSLRSEDTAVYYCARSVGATSAFDIWGQGTMVTVSS
VL: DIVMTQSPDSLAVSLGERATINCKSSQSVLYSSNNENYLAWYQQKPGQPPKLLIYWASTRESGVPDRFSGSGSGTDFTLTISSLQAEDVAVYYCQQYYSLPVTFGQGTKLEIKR
notes: scFv
B10: Polypeptide No. 292 (scFv, V domains shown)
VH: QVQLVQSGAEVKKPGASVKVSCKASGYTFTSYGISWVRQAPGQGLEWMGWINPNSGGTNYAQKFQGRVTMTRDTSTSTVYMELSSLRSEDTAVYYCARQGGLRDFDYWGQGTLVTVSS
VL: B5 VL with H27Q, N28S, W32Y, L33V, A34N, A50D, A51T, Y92F, S93I, R103K
notes: scFv
B11: Polypeptide No. 273 (scFv, V domains shown)
VH: QVQLVQSGAEVKKPGSSVKVSCKASGDTFNSYAVNWVRQAPGQGLEWMGGIIPSFGTPTYAWKFQGRVTITADESTSTAYMELSSLRSEDTAVYYCASVSYGSFDYWGQGTLVTVSS
VL: EIVMTQSPATLSVSPGERATLSCRASQSVSSSSLAWYQQKPGQAPRLLIYDASTRASGIPARFSGSGSGTEFTLTISSLQSEDFAVYYCQQYNRLPYTFGQGTKLEIKR
notes: scFv
B12: Polypeptide No. 288 (scFv, V domains shown)
VH: QVQLVQSGAEVKKPGASVKVSCKASGYTFTTYDINWVRQAPGQGLEWMGWMNPSSGNSGFAQQFQGRVTMTRDTSTSTVYMELSSLRSEDTAVYYCAREDYYDSSGYYNWGQGTLVTVSS
VL: B3 VL with Q24R, D28G, Y32N, Q50K, N53T, K54L, D55E, T56S, P96I, L104V
notes: scFv
B13: Polypeptide No. 283 (scFv, V domains shown)
VH: QVQLVQSGAEVKKPGASVKVSCKASGYTFTSYYMDWVRQAPGQGLEWMGRINPSSGSTTYVQKFQGRVTMTRDTSTSTVYMELSSLRSEDTAVYYCARTPSGSYSDFDYWGQGTLVTVSS
VL: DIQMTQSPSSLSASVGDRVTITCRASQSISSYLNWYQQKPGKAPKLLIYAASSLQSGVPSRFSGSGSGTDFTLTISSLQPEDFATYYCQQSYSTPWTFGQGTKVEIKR
notes: scFv
B14: Polypeptide No. 52 (scFv, V domains shown)
VH: QVQLVQSGAEVKKPGASVKVSCKASGDTFTRHYVHWVRQAPGQGLEWMGIINPRGGTHYAQKFQGRVTMTRDTSTSTVYMELSSLRSEDTAVYYCARRDCSGGSCYSDLDYWGQGTLVTVSS
VL: B3 VL with S30H, N53S, K54L, D55E, T56S, S91A, Y92N, T94F, P96L, Q100G
notes: scFv
B15: Polypeptide No. 50 (scFv, V domains shown)
VH: QVQLVQSGAEVKKPGASVKVSCKASGYTFTDYYMHWVRQAPGQGLEWMGIINPSDGSTTYAQSFQGRVTMTRDTSTSTVYMELSSLRSEDTAVYYCARDELPDSSGWYGYFQHWGQGTLVTVSS
VL: B5 VL with H27Q, N28S, T31S, S93D, T94I, P96L, Q100G, R103K, L104V
notes: scFv
B16: Polypeptide No. 53 (scFv, V domains shown)
VH: QVQLVQSGAEVKKPGASVKVSCKASGGTFSSYAISWVRQAPGQGLEWMGWINPDSGDASYARKFQGRVTMTRDTSTSTVYMELSSLRSEDTAVYYCATFGEEAFDIWGQGTMVTVSS
VL: DIQMTQSPSSLSASVGDRVTITCRASQNIGSWLAWYQQKPGKAPKLLIYGASILQSGVPSRFSGSGSGTDFTLTISSLQPEDFATYYCQQANSFPLTFGGGTKLEIKR
notes: scFv
B17: Polypeptide No. 51 (scFv, V domains shown)
VH: QVQLVQSGAEVKKPGSSVKVSCKASGGTFSSYAISWVRQAPGQGLEWMGEIIPFFGTANYAQKFQGRVTITADESTSTAYMELSSLRSEDTAVYYCARAEYGGDLDYWGQGTLVTVSS
VL: DIQMTQSPSSLSASVGDRVTITCQASQDISNLLNWYQQKPGKAPKLLIYAASTLQSGVPSRFSGSGSGTDFTLTISSLQPEDFATYYCQQSYNTPWTFGPGTKVDIKR
notes: scFv
B18: Polypeptide No. 87 (scFv, V domains shown)
VH: QVQLVQSGAEVKKPGASVKVSCKASGYSFTNYYIHWVRQAPGQGLEWMGWMNPYTGQTGYAQKFQGRVTMTRDTSTSTVYMELSSLRSEDTAVYYCTTDEETMDFHLWGRGTLVTVSS
VL: DIQMTQSPSSLSASVGDRVTITCZASQSISSYLNWYQQKPGKAPKLLIYDASNLETGVPSRFSGSGSGTDFTLTISSLQPEDFATYYCQQANTFPITFGQGTRLEIKR
notes: scFv
B19: Polypeptide No. 61 (scFv, V domains shown)
VH: QVQLVQSGAEVKKPGASVKVSCKASGYTFTNYYMHWVRQAPGQGLEWMGIINPSGGSTSYAQKFQGRVTMTRDTSTSTVYMELSSLRSEDTAVYYCARAEWDILTGYYIDYWGQGTLVTVSS
VL: B17 VL with L32Y, A50G, T53S, S91H, Y92N, N93S, T94Y, P100Q, D105E
notes: scFv

Molecular target: T1, huFLT3-M227 stably expressed on Ramos cells (human, UniProt P36888 27-993)
T1 construct: whole, on cells; also called FLT3 Mutant
Test: FACS on cells
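Wherever result is given: Bio-layer interferometry with scFvs captured on biosensors via anti-V5 antibody, exposed 2 min to CLL-1 K244 or Q244 protein, 5 min dissociation, scored as binding, no binding or ambiguous.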

Row | Binder | FACS geometric mean fold change over Jurkat parental
1 | B1 | 10 to 30 fold
2 | B2 | 10 to 30 fold
3 | B3 | > 30 fold
4 | B4 | 10 to 30 fold
5 | B5 | > 30 fold
6 | B6 | 2 to 10 fold
7 | B7 | 10 to 30 fold
8 | B8 | 2 to 10 fold
9 | B9 | > 30 fold
10 | B10 | 2 to 10 fold
11 | B11 | 10 to 30 fold
12 | B12 | 10 to 30 fold
13 | B13 | > 30 fold

Molecular target: T2, huFLT3-T227 stably expressed on Ramos cells (human, UniProt P36888 27-993)
T2 construct: whole, on cells; also called FLT3 WT
Test: FACS on cells

Row | Binder | FACS geometric mean fold change over Jurkat parental
14 | B1 | 10 to 30 fold
15 | B2 | 10 to 30 fold
16 | B3 | > 30 fold
17 | B4 | 10 to 30 fold
18 | B5 | > 30 fold
19 | B6 | 10 to 30 fold
20 | B7 | 10 to 30 fold
21 | B8 | 2 to 10 fold
22 | B9 | > 30 fold
23 | B10 | 2 to 10 fold
24 | B11 | 10 to 30 fold
25 | B12 | 2 to 10 fold
26 | B13 | > 30 fold

Molecular target: T3, huCLL1-Q244-Avi-Tev-His (human, UniProt Q5QGZ9 65-265)
T3 construct: extracellular domain; also called CLL-1 K244Q
T3 sequence (looked up): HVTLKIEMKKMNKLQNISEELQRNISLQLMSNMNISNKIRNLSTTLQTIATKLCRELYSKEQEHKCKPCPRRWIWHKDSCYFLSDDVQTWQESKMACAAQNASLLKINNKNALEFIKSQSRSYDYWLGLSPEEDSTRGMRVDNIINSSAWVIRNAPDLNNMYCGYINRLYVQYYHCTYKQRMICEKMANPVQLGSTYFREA
Test: BLI
Experimental: (§1) Discovered scFvs were analyzed for binding to huCD33-R69-His or huCD33-G69-Fc recombinant proteins (for anti-CD33 scFvs; for CLL-1 scFvs, huCLL1-K244-Avi-Tev-His or huCLL1-Q244-Avi-Tev-His were used; for FLT3, huFLT3-T227-His or huFLT3-M227-Fc were used) using BLI on a ForteBio Octet HTX instrument. Streptavidin-coated biosensors were loaded with biotinylated anti-V5 tag monoclonal antibody for 5 min and were then quenched and blocked with 20 μM amine-PEG2-Biotin for 5 min. scFvs were captured on biosensors from scFv clone periplasmic extracts. huCD33 (or huCLL-1, or huFLT3) proteins were then associated with the captured scFvs for 2 minutes, followed by dissociation with buffer (1×HBST [10 mM HEPES pH 7.4, 150 mM NaCl, 0.05% Tween-20], 1 g/L BSA) for 5 minutes. […] Data was fitted with 1:1 Langmuir equation and off-rate values were reported.
(§2) Analogous methods were used to assess selectivity of binding of polypeptides to CLL-1 K244 or CLL-1 Q244.

Row | Binder | binding result
27 | B14 | no binding
28 | B15 | no binding
29 | B16 | no binding
30 | B17 | no binding

Molecular target: T4, huCLL1-K244-Avi-Tev-His (human, UniProt Q5QGZ9 65-265)
T4 construct: extracellular domain
T4 sequence (looked up): T3 sequence (looked up) with Q180K
Test: BLI
Experimental: as §1, §2

Row | Binder | binding result
31 | B14 | binds
32 | B15 | binds
33 | B16 | binds
34 | B18 | no binding
35 | B17 | binds
36 | B19 | binds
